Experiment: soluble on expression in E. coli; label from the status in PepcDB or PDB records

Sequence | soluble on expression in E. coli
MEIKQTIAKNLNRVKNELGLKNQDLAEVMGVTRQTIAKYLKGEQIPDSAKLFLLSRRLNIPMKDLIVSSDDQREPMSSFMFRADNPKENFRLIDQNQVNRIMDDYYELLASFGEASVAYLPPTYKLKLVDHELTEEHKTIIRQAAEQTRKMFGLDHVIPSDIYAVLEHHGIHVIALKTIDKKIDGLSAYSEEKGAFIFLNDHDEIPEERKRFSVIHELGHLIFHREEYRSDLSSLTYSSARREINEKVATLFASYFLIPREQLREYAYYFKRYVTIETIMELKRQFFVSAEAFMRALLDEQYISGRTYGFLRKTLREQGYKEQEPAPIDYIPKNRKLTYFVKQAYFEGSITINKVCEILGCDLRTAREMIKGWYKEHGCSENTGAL | not soluble
SLWYYLFKYIFMGPLFTLLGRPKVEGLEYIPSSGPAILASNHLAVADSFYLPLVVRRRIWFLAKSEYFTGTGLKGWINRWFYSVSGQVPIDRTNADSAQGALQTAVVLLGQGKLLGMYPEGTRSPDGRLYKGKTGLARLALHTGVPVIPVAMIGTNVVNPPGRKMLRFGRVTVRFGKPMDFSRFEGLAGNHFIERAVTDEVIYELMGLSGQEYVDIYAASVKDGRNAGGAGANPNSTDAARIPETAAEG | not soluble
MAQTVPYGIPLIKADKVQAQGFKGANVKVAVLDTGIQASHPDLNVVGGASFVAGEAYNTDGNGHGTHVAGTVAALDNTTGVLGVAPSVSLYAVKVLNSSGSGSYSGIVSGIEWATTNGMDVINMSLGGASGSTAMKQAVDNAYARGVVVVAAAGNSGNSGSTNTIGYPAKYDSVIAVGAVDSNSNRASFSSVGAELEVMAPGAGVYSTYPTNTYATLNGTSMASPHVAGAAALILSKHPNLSASQVRNRLSSTATYLGSSFYYGKGLINVEAAAQ | soluble
MMSRVTCSHMSFQTAIRPAESVDIADIRRVARATWHTVYDDILGAETVEEHLKEGYTPPLLEQMIELDEVGLFVSTADDDVVAYMSCGMTDATGFGDLDLYVHPDYWGEGIGTELLHRGEQHLHDLSVRKIRDEVLAENEVGNAFYRAHFEKVGQRTAKVGGQEHPVNVYERRL | not soluble
MDITELLAFSAKQGASDLHLSAGLPPMIRVDGDVRRINLPPLEHKQVHALIYDIMNDKQRKDFEEFLETDFSFEVPGVARFRVNAFNQNRGAGAVFRTIPSKVLTMEELGMGEVFKRVSDVPRGLVLVTGPTGSGKSTTLAAMLDYLNNTKYHHILTIEDPIEFVHESKKCLVNQREVHRDTLGFSEALRSALREDPDIILVGEMRDLETIRLALTAAETGHLVFGTLHTTSAAKTIDRVVDVFPAEEKAMVRSMLSESLQSVISQTLIKKIGGGRVAAHEIMIGTPAIRNLIREDKVAQMYSAIQTGGSLGMQTLDMCLKGLVAKGLISRENAREKAKIPENFGAAALEHHHHHH | soluble
MPRVKAAQAGRQSSAKRHLAEQFAVGEIITDMAKKEWKVGLPIGQGGFGCIYLADMNSSESVGSDAPCVVKVEPSDNGPLFTELKFYQRAAKPEQIQKWIRTRKLKYLGVPKYWGSGLHDKNGKSYRFMIMDRFGSDLQKIYEANAKRFSRKTVLQLSLRILDILEYIHEHEYVHGDIKASNLLLNYKNPDQVYLVDYGLAYRYCPEGVHKEYKEDPKRCHDGTIEFTSIDAHNGVAPSRRGDLEILGYCMIQWLTGHLPWEDNLKDPKYVRDSKIRYRENIASLMDKCFPEKNKPGEIAKYMETVKLLDYTEKPLYENLRDILLQGLKAIGSKDDGKLDLSVVENGGLKAKTITKKRKKEIEESKEPGVEDTEWSNTQTEEAIQTRSRTRKRVQK | soluble
MGSDKIHHHHHHMRLKELLPNFLIVHQEVPEDPIAFKSTDKRENENKEITIPELIDTKVPELADGATDTLYGLLVNGHLQTAYGSFRHFDNIYKVQYKRMIIKYPHGGEGTVDFAVNGRSTKRRKVEKEYVPTSQPVFNGNLKRRYSYYSPDDPKLNSDDAKPMLIILHGLTGGSRESYVRAIVHEITTKYDFEACVFNARGCCYSAITTPLLYNGGWTNDIRYCVNDLRKRFPNRKFYMMGFSLGASIMTNYLGEESDRTKIECAISVSNPFDLYNSAYFINSTPMGSRFYSPALGHNLLRMVRNHLSTLEENPDFKDVIEKHLKKIRTVRQFDNLLTGPMFGYKNAEEYYKNASSYKRIPGIRTPFIALHAQDDPIVGGDLPIDQIKSNPYTLLLETSTGGHVGWFKDRSGRRWYAEPLCRFLKIFHDEITVKGLKPDLENVQLPDPNCEPIATTFRAN | not soluble
MIQNDYSIYQYHVEFEPTVDSKATRENMLRQPSVTVEIGKHFVFDGMILYLKEEWDQNQMIEVQHPNDNSLICIRFKKTNRFLVDDPQTINIFNTIIRRSFDAMKLTQIGRNYFDWDNSRALRKELRSCQNNRQRVQEKMNEVYGGSTIITRYNNKLHRFTRLDNEITPLSKFQKDGEQIILKEYFKNQYDIDITDDEQFIIISEGKPKQPGEPPQVNYIVPELCFPTGLTDEMRKDFKMMKEIAKHTRMSPQQRLDETRKLITKLSQNQTMMECFQYWGISLGQDLANVQARVLKSEPLQGKRQYEGKQAEWARGVKECGIYRGSNMTNWIVIGPGSGNSGLLAQKFIAEARNLGRTLQVQLGEPMCVKINGISPNDYLEGLKAAIKSVDGEEIHMLVVMLADDNKTRYDSLKKYLCVECPIPNQCVNLRTLAGKSKDGGENKNLGSIVLKIVLQMICKTGGALWKVNIPLKSTMIVGYDLYHDSTLKGKTVGACVSTTSNDFTQFYSQTRPHENPTQLGNNLTHFVRKSLKQYYDNNDKTLPSRLILYRDGAGDGQIPYIKNTEVKLVRDACDAVTDKAAELSNKVQEKIKLAFIIVTKRVNMRILKQGSSSKSAINPQPGTVVDTTVTRPERMDFYLVPQFVNQGTVTPVSYNIIHDDTGLGPDKHQQLAFKLCHLYYNWQGTVRVPAPCQYAHKLAFLTAQSLHDDANGYLRDKLFFL | not soluble
KPYQVVGEKQEILNLIDNTTLDVSFTLPVSYAESVSLSALKNAEMWVTMDSEPSKRIPGKFKEISTQPNIDTNSYEAIVTITRPTDRNLLTGMTGQVHIAKQNKSNAMTLPTSAWVNKQEKQGEVWVMDSSTQQVSKVTLSLNESGAIESGLDNNDYVVIAGVERLVEGQVVKAWIREEGI | not soluble
MSLRETLKTIAETLNVTHTTVSNVFNRPEKVSPELREKILAYAESINYHGPAGAGRFLRTGKCGTLGVIFNDNLSYVFSDRHDIALMRGIAEECEKNGINIALMPLKTNNALKKRMMGALVDGYILNATYNNDEVVQAALTSGLPVITTDIKLQNFTCVSIDDGAAMQAICHHLLAAGHKKFGIVSFPVKRLPGELTSLAEFSTDYDNGVAFGRISACITALSDAGIDLHTSYVAEQPHSETGGEKAAKALLAKEPGISAIICLSDRFAFGVYQFCQDHNIPVPGQIAITGFDDIDIQDPPVGLTTIRQPTVLKGREAARALISGQLDNDISLDFELVVRDSAEGHHHHHH | soluble
MIQDKEVTLEYVSSLDFWYCKRCKANIGGHRSSCSFCKNPREVTEAKQELITYPQPQKTSIPAPLEKQPNQPLRPADKEPEPRKREEGQESRLGHQKREAERYLPPSRREGPTFRRDRERESWSGETRQDGESKTIMLKRIYRSTPPEVIVEVLEPYVRLTTANVRIIKNRTGPMGHTYGFIDLDSHAEALRVVKILQNLDPPFSIDGKMVAVNLATGKRRNDSGDHSDHMHYYQGKKYFRDRRGGGRNSDWSSDTNRQGQQSSSDCYIYDSATGYYYDPLAGTYYDPNTQQEVYVPQDPGLPEEEEIKEKKPTSQGKSSSKKEMSKRDGKEKKDRGVTRFQENASEGKAPAEDVFKKPLPPTVKKEESPPPPKVVNPLIGLLGEYGGDSDYEEEEEEEQTPPPQPRTAQPQKREEQTKKENEEDKLTDWNKLACLLCRRQFPNKEVLIKHQQLSDLHKQNLEIHRKIKQSEQELAYLERREREGKFKGRGNDRREKLQSFDSPERKRIKYSRETDSDRKLVDKEDIDTSSKGGCVQQATGWRKGTGLGYGHPGLASSEEAEGRMRGPSVGASGRTSKRQSNETYRDAVRRVMFARYKELD | not soluble
MGSDKIHHHHHHQRDLWNIFKLWGWTMLCCDFLAHHGTDCWTYHYSEKPMNWQRARRFCRDNYTDLVAIQNKAEIEYLEKTLPFSRSYYWIGIRKIGGIWTWVGTNKSLTEEAENWGDGEPNNKKNKEDCVEIYIKRNKDAGKWNDDACHKLKAALCYTASCQPWSCSGHGECVEIINNYTCNCDVGYYGPQCQFVIQCEPLEAPELGTMDCTHPLGNFSFSSQCAFSCSEGTNLTGIEETTCGPFGNWSSPEPTCQVIQCEPLSAPDLGIMNCSHPLASFSFTSACTFICSEGTELIGKKKTICESSGIWSNPSPICQKLDKSFSMIKEGDYN | not soluble
MYYDVLKTFIAVVEEKNFTKAAEKLMISQPSVSLHIKNLEKEFQTALLNRSPKHFTTTPTGDILYQRAKQMVFLYEQAKAEIYAHHHYVKGELKIAASFTIGEYILPPLLAQLQKLYPELNLDVMIGNTEEVSERVRMLQADIGLIEGHTNENELEIEPFMEDEMCIAAPNQHPLAGRKEISISDLQNEAWVTREKGSGTREYLDHVLSSNGLRPKSMFTISSNQGVKEAVINGMGLSVLSRSVLRKDLIHREISILHINNFSLKRKLSYIHSPLMENTKNKEIFITMLKSNYQSQLLK | soluble
MGSDKIHHHHHHMTIDNQTGLVLEGGGMRGVFTCGVLDYLMDHDIRFPYTIGVSAGACNGLSYMSRQRGRAKYSNIDLLEKYHYIGLKHLLKKRNILDFDLLFTEFPEHILPYDYQAYFDSPERYVMVTTNCLTGEADYFEEKKDKNRVIDIVRASSSLPFVCPIAYVDGIPMLDGGIVDSIPLQRAIHDGYRNNVVVLTRNRGYRKENKDIRIPPFVYRKYPKMREALSRRCAAYNAQLEMVERMEEEGDILVIRPQKPVVVDRIERDIQKLTDLYEEGYECAKRQFEVL | not soluble
PAAGPSRVRQNFHPDSEAAINRQINLELYASYVYLSMAYYFSRDDVALNNFSRYFLHQSREETEHAEKLMRLQNQRGGRIRLQDIKKPEQDDWESGLHAMECALLLEKNVNQSLLELHALASDKGDPHLCDFLETYYLNEQVKSIKELGDHVHNLVKMGAPDAGLAEYLFDTHTLGNENKQN | soluble
GMSADIVFDRGSPSDIDEIKTFTSNTWKVGYYTDLYSKLADTGTMDDYVDKVIERWVNDGSVYVLRVSGRPVATIHMEKLPDGSVMLGGLRVHPEYRGSRLGMSIMQETIQFLRGKTERLRSAVYSWNEPSLRLVHRLGFHQVEEYPIYTFQGGSTAVPALKPVNERYAGRWRCFFIDWKYMCSDDPDIIHEEYSNNLIVDGSTFVYFDIYEGGIDLFVNDSDDASSFIEKYRSMNGRITFYVRKALANGLPYVPASSLTVWEYRY | soluble
MAREELRRHLVGLIERSRVVIFSKSYCPHSTRVKELFSSLGVECNVLELDQVDDGARVQEVLSEITNQKTVPNIFVNKVHVGGCDQTFQAYQSGLLQKLLQEDLAYDAENLYFQ | soluble
DAAGVSEVEVEATEIENLKAELSEMEDKFLRARAEIANMSNRNKNERELLVRYRSQDLGKKILPSIDNLERAMAIEVSDEQGESLKKGISMVLESITVALKEEG | not soluble
MSLENWRFIEANSDYMVSDHGRILSFKGKSKLIISSSITAKGYEYVAIRQKGIYVGYSVHRLVATAFIPNPKRLPQVNHLDGNKLNNHVANLEWCDAYDNVMHAIRTGLRPSSPALSPVPCATTDEAGNILQAYPSMNALVKGEQMNPKQRNWLVLHLLHPERLKQSAMKKKSRAERSGSEECFLIAPEIPVLTVKADSIGEFEAGNPLGIGKSSNSVGEFEAGNPLGIGKSSNSVEEFEAGNPLGIGKSSNSVGEFKAGNVCVQPVSFSFVSSPFPLISLFAPIHHSVTQHYYRRLSPEESAIFGFNTYILPRERGQRKEFLQEGHHHHHH | not soluble
KRSNSIKRNPNAPVVRRGWLYKQDSTGMKLWKKRWFVLSDLCLFYYRDEKEEGILGSILLPSFQIALLTSEDHINRKYAFKAAHPNMRTYYFCTDTGKEMELWMKAMLDAALVQT | soluble

— the DeepSol protein solubility set
